The record followed here is article PMC5645493, “LAR-RPTP Clustering Is Modulated by Competitive Binding between Synaptic Adhesion Partners and Heparan Sulfate” (Frontiers in Molecular Neuroscience, 2017).

Sequences and labels used below:
B2: human IL1RAPL1 Ig1-3 (domain or fragment)
chain: SADGCTDWSIDIKKYQVLVGEPVRIKCALFYGYIRTNYSLAQSAGLSLMWYKSSGPGDFEEPIAFDGSRMSKEEDSIWFRPTLLQDSGLYACVIRNSTYCMKVSISLTVGENDTGLCYNSKMKYFEKAELSKSKEISCRDIEDFLLPTREPEILWYKECRTKTWRPSIVFKRDTLLIREVREDDIGNYTCELKYGGFVVRRTTELTVTAPLTDKPPKLLYPMESKLTIQETQLGDSANLTCRAFFGYSGDVSPLIYWMKGEKFIEDLDENRVWESDIRILKEHLGEQEVSISLIVDSVEEGDLGNYSCYVENGNGRRHASVLL
modifications: glycans (NAG2-BMA-MAN) attached to N138
notes: IL-1 receptor accessory protein-like 1 (IL1RAPL1), human, Ig-like domains 1-3 of the extracellular part; In the functional row the Fc-fused form (Fc not cleaved) was used; also called IL-1 receptor accessory protein-like 1; IL1RAPL1 Ig1-3-Fc / IL1RAPL1-Fc (Fc kept, in the clustering assays only); source: High Five insect cells (baculovirus), secreted, purified (IgG Sepharose or protein A …)

Data set [1] deals with the molecule itself. The data set can be described thus: crystal structure; PTPδ Ig1-3(+/+) mixed with IL1RAPL1 Ig1-3 at 1:1, complex isolated by gel filtration; sitting drop, 296 K, 100 mM Tris-HCl pH 7.5, 200 mM zinc acetate, 10% PEG8K; space group P3_(2)12; 3.08 Å. Background: SEC sorts molecules by how far they enter the pores of the column.
For the data set “human IL1RAPL1 Ig1-3”, the target named is B2. Described as above. The note with it: both partners purified.

B1: human PTPδ Ig1-3(+/+) (domain or fragment)
chain: ETPPRFTRTPVDQTGVSGGVASFICQATGDPRPKIVWNKKGKKVSNQRFEVIEFDDGSGSVLRIQPLRTPRDEAIYECVASNNVGEISVSTRLTVLREDQIPRGFPTIDMGPQLKVVERTRTATMLCAASGNPDPEITWFKDFLPVDTSNNNGRIKQLRSESIGGTPIRGALQIEQSEESDQGKYECVATNSAGTRYSAPANLYVRELREVRRVPPRFSIPPTNHEIMPGGSVNITCVAVGSPMPYVKWMLGAEDLTPEDDMPIGRNVLELNDVRQSANYTCVAMSTLGVIEAIAQIT
notes: receptor-type tyrosine-protein phosphatase delta (PTPδ), human, Ig-like domains 1-3, splice form with the MeA and MeB inserts (+/+); In the functional rows the Fc-fused form (Fc not cleaved) was used; also called PTPδ Ig1-3 MeA+MeB+; LAR-RPTP (PTPδ); source: High Five insect cells (baculovirus), secreted, purified (IgG Sepharose or protein A Sepharose, thrombin, Superdex 200)
In the case of B1, the binding result (in data set [1]; in the data set with human IL1RAPL1 Ig1-3) was “binds” each time.
In the case of B2, the binding result in data set [1] is on record as “binds”.
